Blank lines part the entries; values can stand above or below the binder they belong to.
Legend:
Human CD19-his protein [1] = target: T1, Human CD19-his protein (human, UniProt P15391 20-291); assay: ELISA, antibody at 0.10 nM
T1 construct: bought protein; also called human CD19 protein; recombinant human CD19-His; not shown: His tag
T1 sequence (looked up): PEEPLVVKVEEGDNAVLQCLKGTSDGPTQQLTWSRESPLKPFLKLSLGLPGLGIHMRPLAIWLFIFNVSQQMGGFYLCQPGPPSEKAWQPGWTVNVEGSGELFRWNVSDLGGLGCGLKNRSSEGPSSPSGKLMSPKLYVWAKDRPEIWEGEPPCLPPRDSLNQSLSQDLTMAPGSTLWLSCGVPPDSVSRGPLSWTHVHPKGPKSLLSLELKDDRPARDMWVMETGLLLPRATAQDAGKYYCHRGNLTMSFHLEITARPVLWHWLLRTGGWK

Human CD19-his protein [2] = target: T1, Human CD19-his protein; assay: ELISA, antibody at 0.001 nM
Human CD19-his protein [3] = target: T1, Human CD19-his protein; assay: ELISA, antibody at 0.0001 nM
Human CD19-his protein [4] = target: T1, Human CD19-his protein; assay: ELISA, antibody at 10 nM
Human CD19-his protein [5] = target: T1, Human CD19-his protein; assay: ELISA on coated human CD19-His
murine CD19 protein = target: T2, murine CD19 protein (murine, UniProt P25918 17-287, limits assumed); assay: ELISA, coated murine CD19
T2 construct: bought protein; also called commercial murine CD19
T2 sequence (looked up): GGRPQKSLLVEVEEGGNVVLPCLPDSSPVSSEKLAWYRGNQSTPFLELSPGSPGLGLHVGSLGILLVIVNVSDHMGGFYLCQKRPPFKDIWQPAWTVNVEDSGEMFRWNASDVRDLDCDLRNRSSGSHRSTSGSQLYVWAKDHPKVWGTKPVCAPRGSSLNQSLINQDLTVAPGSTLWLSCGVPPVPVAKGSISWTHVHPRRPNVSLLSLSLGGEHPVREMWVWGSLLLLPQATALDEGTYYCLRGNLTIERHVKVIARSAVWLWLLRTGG
Outline: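 Plates coated overnight at 4° C with recombinant murine or monkey CD19 and blocked with 2% BSA. Chimeric antibodies, serially diluted from 100 nM, bound for 2 h at 37° C. TMB development for 10 min with OD450 read-out.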

Human CD19-his protein [6] = target: T1, Human CD19-his protein; assay: ELISA, antibody at 0.01 nM
Human CD19-his protein [7] = target: T1, Human CD19-his protein; assay: ELISA, antibody at 100 nM
[8] = target: T3, human CD19 exon1-3-his protein (human, UniProt P15391 20-186, limits assumed); assay: ELISA, coated at 2 ug/mL
T3 construct: made in HEK293E cells; also called membrane-distal end; not shown: His tag
T3 sequence (looked up): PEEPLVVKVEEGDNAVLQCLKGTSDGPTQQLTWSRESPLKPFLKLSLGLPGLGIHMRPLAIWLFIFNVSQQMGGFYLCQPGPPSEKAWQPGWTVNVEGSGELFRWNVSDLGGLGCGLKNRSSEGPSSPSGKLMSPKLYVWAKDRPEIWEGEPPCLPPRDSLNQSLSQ

Human CD19-his protein [9] = target: T1, Human CD19-his protein; assay: ELISA, antibody at 1.00 nM

OD450 (Human CD19-his protein [1]): 1.56
OD450 (Human CD19-his protein [2]): 0.09
OD450 (Human CD19-his protein [3]): 0.06
OD450 (Human CD19-his protein [4]): 1.76
EC50 (read off the curve) (Human CD19-his protein [5]): ~0.03 nM
binding result (murine CD19 protein): no binding
OD450 (Human CD19-his protein [6]): 0.38
OD450 (Human CD19-his protein [7]): 1.93
binding result [8]: no binding
OD450 (Human CD19-his protein [9]): 1.89
B1: F4.48.12 (antibody, human IgG1, V domains shown)
VH: QMQLKESGPGLVAPSQSLSITCTVSGFSLTDYGVSWIRQPPGKGLEWLGVIWGSGSTFYNSALTSRLSISKDNSKSQVFLKMNSLQTADTAMYFCAKHHYYGGSFAMDYWGQGTSVTVSS
VL: DIQMTQASSSLSASLGDRVTISCKTSQDISNYLNWYQQKPDGTFKLLIHYTSRLHSGVPSRFSGSGSGSDYSLTISNLEREDIATYFCQQGNSLPYTFGGGTKLEMK
notes: human-murine chimeric antibody, human IgG1

OD450 (Human CD19-his protein [1]): 0.16
OD450 (Human CD19-his protein [2]): 0.05
OD450 (Human CD19-his protein [3]): 0.05
OD450 (Human CD19-his protein [4]): 0.61
EC50 (read off the curve) (Human CD19-his protein [5]): ~0.5 nM
binding result (murine CD19 protein): no binding
OD450 (Human CD19-his protein [6]): 0.07
OD450 (Human CD19-his protein [7]): 0.68
binding result [8]: no binding
OD450 (Human CD19-his protein [9]): 0.43
B2: F4.41.1 (antibody, human IgG1, V domains shown)
VH: QVQLQQSGAELVRPGTSVKVSCKASGYAFTNYLIEWVKQRPGQGLEWIGVINPGSGDTLYNEKFKGKATLTADKSSTTAYMQLSGLTSDVSAIYFCARSPPITTIVADYFDYWGQGTTLTVSS
VL: DIQMTQTTSSLSASLGDRVTISCRASQDISNYLNWYQQKPDGTVKLLIYYTSRLHSGVPSRFSGSGSGADYSLTISNLEQEDIATYFCQQGKTLPYTFGGGTKLEIK
notes: as for B1
